Reference: the DeepSol protein solubility set

Assay: soluble on expression in E. coli; label from the status in PepcDB or PDB records

Row | Sequence | soluble on expression in E. coli
1 | MSVIIVGGGMAGATLALAISQFSHGTLPVHLIEAKAPEADGHPGFDARAIALAAGTCQQLARIGVWQAISDCATAINTVHVSDRGHAGFVTLDAQDYSLAALGHVAELHDIGLRLFALLRKAPGVTLHCPERVASVSRTQQQVNVTLENGNVIAGSVLVAANGTHSALASRCGVDWHQEPYEQLAVIANVATAIPHQGRAFERFTPNGPLAMLPMSHGRCSLVWCHPLDQRDEVLSWSDAQFCHALQAAFGWRLGRITQAGKRSAYPLALTTAAKVFSHRTVVVGNAAQTLHPIAGQGFNLGLRDVMSLAETLVAAQDAGEDIGAWHVLSRYQQRRQVDRDTTIGVTNGLVHLFANRWAPLVIGRNIGLMAMELLPPARDALAQRTLGWVARLEHHHHHH | not soluble
2 | MGHHHHHHSHMILEIRTKNFIFRTKHKLDFTPIGCDAKGRIVLGYTEAELCTRGSGYQFIHAADMLYCAESHIRMIKTGESGMIVFRLLTKNNRWTWVQSNARLLYKNGRPDYIIVTQRPLTDEEGTEHLRKRNTKLPFMF | soluble
3 | QGKPREAAQHLEAEASRASGAQRNQLLADAAFAWHEAGDTARAQVLVRQVSVQQLTGESKARFVLLLGELALANRQPVRAFQYFGESSSGLSKKLQIRWLLGRAAALEANGDAFGAAQQRARADQALLGKARNENQAAITRLLAGLDHEVLLTRTAALPVGDPLYHFVGRVLLSRGEALPQPLEGSVQGSVGSSQRPSADTDGYRPPLKLAVLLPLTGSLATAAAPVRDGFLAGYYAETRRRPDLDFFDTGSTPVGAKAAYAKAIAAGADFVVGPLGRDEVSALFSQGQLSIPLLALNRSTGDRVSLPSGSASFSLAPEDDGVIAADYLLAQGQRNVIVIGSNDDVGRRGVQAFMDRFRARGGQVLAALGVADVPGDLGPRLRGADRADAVFLAVRGPTARVLAPQLASLGLSSKPQVGTSQLVLGTGKPEEDTLLDGIVYPTEPWSVQGVKSIPSAADVAVRLPNMRGAALRLFAFGVDAWKLSVYLEGLSAGGAGGGLRGATGTLRLDDSGNVIRIPIWATFRNGQSIPVEML | not soluble
4 | MGSDKIHHHHHHMLSRFSDSRPAVTVKNVALTYSGADKPALQIEDLTIPEGQCVVLCGQSDSGKSSFLKMLNGLTPEYYPAQLSGQIFLGDLDLQKSSLEEISRHIASVFQHPSTQFFHSQVLQELVFPCENQGLSREEIENRLAWVMELFGLASLSRRTISSLSGGQQQRLALAVTAMQGTDVLVLDEPTANLDQEGIAIVEDILKTLKSQGKTIIIAEHRLSYLSQLADRYLYFQDGQVVTDYLADEFLSRTEECRQDMGLRCYDSEPYGRAIAELADQFVNDKEGLLVENLSVSQKENTLYEIEKLCLASGQVVGLVGANGSGKTSLARYLVGLAEDKKSRISWQGQTLSSRQRLEKTAFVMQDVRLQLFAESVERELTLGRKNRAVDEHLVARFGLSDLLERHPVSLSGGEQQRVMIVASLLADKEIFIFDEPTSGLDLRRMQQVASALVDLKMKNKLVLLISHDEELLNLVCDKIVDIKQLK | not soluble
5 | MAHHHHHHMIGKIFDNAFRIRTYNRFVCFLIGGTFAYSFSNPDMDTVYDLFPIFKQNKYAYLTFLEVNEKHSNVFEERLKDLCRFYQKQPGYLYTKIIKRIDNINDISKYIVISTWIKSENYLLACNRMYGQILINKIQNYAKYNSYLYRIVVDDSDYLPPI | not soluble
6 | SITKPQNKSAKLVDGELLVKASVESFGLEDEKYWFLVCCELSNGKTRQLKRYYQDFYDLQVQLLDAFPAEAGKLRDAGGQWSKRIMPYIPGPVPYVTNSITKKRKEDLNIYVADLVNLPDYISRSEMVHSLFVVLNNGFDREFERDENGSHHHHHH | soluble
7 | GPGSMDQDLSVCEQEYRKLLDPEEPLFSRTRELYRLKESILRTPAGVHVLAKAVDTTNSVLLQHELVYNLGQSAMVEACPHLERFIRAVGKYDIVTRHEAVEALGAIGDPACIPLLRHFMEPANEPEAAIRESCELALKRIEMLEEKGKEAVGPAANCPFVSIDPAPAFNGTNTGGSAPYTVSELENLLCDTTGAVSLWLRYQAMFTLRNIGTPEAVAALSRALRQDNTSALLRHEVAFVLGQLEHPASQPALLDALRDEHEAPMVRHEAAEALGAIADPKTLPALEEYAKHKEAIVRDSCVVALEMHKYWSQFNNQRIQH | soluble
8 | MTIATIDIGGTGIKFASLTPDGKILDKTSISTPENLEDLLAWLDQRLSEQDYSGIAMSVPGAVNQETGVIDGFSAVPYIHGFSWYEALSSYQLPVHLENDANCVGLSELLAHPELENAACVVIGTGIGGAMIINGRLHRGRHGLGGEFGYMTTLAPAEKLNNWSQLASTGNMVRYVIEKSGHTDWDGRKIYQEAAAGNILCQEAIERMNRNLAQGLLNIQYLIDPGVISLGGSISQNPDFIQGVKKAVEDFVDAYEEYTVAPVIQACTYHADANLYGALVNWLQEEKQW | soluble
9 | GPGSMPQSAVMNVMVQAAMKAGRSLVRDYGEVQNLQVSLKGPADYVSQADRKAEKIIFNELSKARPKFGFLMEESEEIIGEDSQHRFIVDPLDGTTNFLHGIPFFAVSIALESQGKIVAGVIYNPINDELFTAERGSGAFFNDRRCRVSARRRLEDCVIATGMPHLGRPGHGTYLIELRNVMAEVSGIRRFGTAALDLAYVAAGRTDGFWEDNLQIWDMAAGILMVREAGGFVTDKEGGNDIFRKKNIIAGNEHIRIKLERALKKGI | soluble
10 | MTGASRPPKSRRSAAAAPSPEGLTLDLERYVPAFITFIANKLSNSATAFYQGNFGVNVTEWRIMSLLAIEPGISAARICQVIGFNKGPVSRTLSDMQSRGLITIRVDPNDARTHSISLTGKGRATHDKVIVAALERERKLMSCLSADEQEVLIDLLRRLHNNLGAVTGETT | not soluble
11 | MSLTEAGDSEGEQSYFVSTPDEYPGGHDREDDGSVYGQIHIEEESTIRYSWQDEIAQGTWRRKMRGDVGGEKPVKVLEVPALSLGGAIGSAHLKEEASGELRAEPTVIEKEIKIPHEFHTSIKGVFSSEPRHQLVEVIGQLEETLPERMKEELSALTRQSQGESGSVSVDVKKVQSAAGGSVTLMAEVNLSQTVDADQLDLEQLSRDEAGEIERAVESVVRESLAKRSSPVPRSEGHHHHHH | soluble
12 | GPGSMDPNTCAPASAVTDEQPLTLLWGTWEMWCDMPQRQQGQSTENTNWLEQVKSIGLFDSAEGFWGIFNCTILPSQLPPNGSYYLFRKHIAPMWEHEANRRGGKWVIPFTGKASRSEGDLQPVDEAWQTLCLSAIGELFPGDEEEICGVTVSRGRQRTLPSGHATSALSEWKLCLWTRSADNRGSQIRIAEYIRKQLHLQPPSKEASRDGKSGEQDTLMEMPRSPDRSPVAKMREASGIPSAMTYVAHRDLMEAKQEFVKGGSSVAQAFRPKYTLAIDVRNEGV | soluble
13 | MHENKYLTIYHDLISRIRRGEWKAYDKLPSEHELAARYETSRETIRKALHLLSEHGYIQKMKGKGSIVLDVGKYDFPVSGLVSFKELAQTMKQPVRTIVHELAIIKPDRELRQHLRASSKDEVWKVVRVREIGGERIILDKDFFLKKHVPLLTKEICEDSIYEYLETKLHLPISFAKKEISVDEATDEDRRYLDLHGDDRVVVVKNYVYLSDAALFQYTESRHRLDKFRFVDFARRK | not soluble
14 | VNVVQLASAPLHRIVAYTNESCALALYRDQDATLVFAKQVESANQLRYQLDLYRPVSVLWGASGHAVLAHLPPERVRTLLKKEPLSPTGLAALPARELNRDLKQIREQGYSVSTRGEKIEGAAGISTPIFGTGGHVIGCFSLFIPRIRYPEHRETELAQLLVREAGALSDVLAGRQAAPA | not soluble
15 | MKFIVKPHPEIFVKSESVRKRFTKILECNIRNIVKSRTESVAVFNRRDHIEVTSESNEYHAEVLEILTHTPGIHHVLEVKQSEFKDLHDIYEQVLELSRPLIENKTFVVRAKRRGKHDFTSIELERYVGGGLNQAVESARVKLHNPDVTVKVEVSGDKLNQVLARHKGLGGFPLGTQEDVLSLISGGFDSGVSSYLHIKRGSKVHYCFFNLGGPAHEIGVKQVSHYLWNKYGSSAKVRFISVDFEPVVAEILEKVDDGQMGVILKRMFMRAAGMIAEKFKIEALVTGEALGQVSSQTLTNLRHIDNVTDTLILRPLINWDKEDIINLAREIGTEDFAKTMPEYCGVISKKPTVKAVKEKLEAEEAKFDFSILEKVVYEARQMDIRDIAKESEQAAPEVEQVQAVEEHAVVLDIRSPDEEDDNPLEIAGVDVKHIPFYKLGTQFGDLDQSKTYLLYCDRGVMSRLQALYLQEQGFNNVKVYRP | not soluble
16 | MDALSRLLTLNAPQGSIDKNCPLGGDWQLPHAAGELSVIRWHTVTQGEAQLEMPTGDAMTLTPGKVVILPQNSAHRLRQSGESPTHIVCGSLRLHTTSRYFLTALPEVLCLAPPPHSPASIWINATILLLQQESERHLPGADVLYSQQCATLFTLAVRDWLSQAGTAKSVLNLLLHPRLGRVILHMLETPAHPWTVETLAQRVHMSRASFAQLFRDVSATTPLAVLTTLRLQIAAQTLSREVLPVMVIAESVGYASESSFHKAFVREFGCTPGEYRKRVSALGR | not soluble
17 | GLFDKLKSLVSDDKKDTGTIEIIAPLSGEIVNIEDVPDVVFAEKIVGDGIAIKPTGNKMVAPVDGTIGKIFETNHAFSIESDSGVELFVHFGIDTVELKGEGFKRIAEEGQRVKVGDTVIEFDLPLLEEKAKSTLTPVVISNMDEIKELIKLSGSVTVGETPVIRIKK | soluble
18 | MGSDKIHHHHHHMSGETLYQQLVNEWMELIRNGTVRPGERLPSVRKACAMHKVSPSTILQTYRMLEDRGLIEARPQSGFYVKSAASLPLPRMRRQSAAHHTGEVVDQIEAVMGVQSQADFIDLALASPRGSDFYPTTRFKHIMGRLLRQHPELTTDYPFPPGSERLRRQIAQRAVNWGCVLAADELVISNGCTEALQLALRAVCKPGDTVGVESPTYFALLPMLKDLGLAVIEIPTHPTSGLALDALELLLSEKRLNAVVAMPTVHNPLGSTMPPEAKRRLAQLVNDYQVPLIEDVPHAELFYGASTPDAVKAYDRDGWVLLCSSYSKTLAPGFRIGWIAPGRFLSEVRRLKFSSSLGQPALLEETLAEYLESGGYDHHLRLLRRHFISQMEKLRGAVAQHFPDGTRATLPSGGCLLWVELPSHADTMQLFRAALAERITVVPGAMYSAKGRYRNCLRLSCCYPWNEAYQRALIRVGELAGELAEGH | not soluble
19 | MKILLRNALITNEGKTFPGSVMIDGAFISRIIEGELPADDNLSADEVIECSGLRLFPGCIDDQVHFREPGLTHKATIASESRAAVAGGVTSFMDMPNTNPPTTMWERLLEKRQIGADTAWANYGFFFGGTNDNIDEIKRVDKHLVPGLKLFLGSSTGNMLVDNKETLEKIFGECDLLIATHCEKEEIIRANKEHYKAKYGNDLDIHFHPLIRSEEACYRSSAEAVELAERMNARLHILHLSTEKELSLFRNDIPTAQKRITSEVCVHHLWFSDTDYGRLGNRIKWNPAIKKESDREALRAAVRNGRIDIIATDHAPHLLREKEGSCLQAASGGPLVQHSLLALLELCNQ | not soluble
20 | MSLERNYEESALFEHQFWLKVLTDHAQFLLDALAPKEKEDIKKATYFVETFTNLLNKVRNVNLMAFSKEAEQAAKEIRAFKLNIIQKQLEGKITIHFTPTFINHMVNEVEEYIAVLEFLKKGEVPPVFHELHYHLVWLTDAAGHAGSISGGLDLVEKRLKEKSEEFTKHFEQFYLKAVEMTGYLRTELHHFPALKKFTKDVSLELKLFSHFLHEVEELELSNEVLSVLSARMADHMAREECYYLLKLAQSSGLEMPKCNPLEGHHHHHH | soluble
21 | MGHHHHHHSHMKRSLSENSARSTADWAWEAVNPELAPVMKTVDTGQIPHSVSRPLRSQDSVFNSIQSNTGRSQGGWSYRDGNKNTSLKTWNKNDFKPQCKRTNLVANDGKNSCPVSSGAQQQKQLRIPEPPNLSRNKETELLRQTHSSKISGCTMRGLDKNSALQTLKPNFQQNQYKKQMLDDIPEDNTLKETSLYQLQFKEKASSLRIISAVIESMKYWREHAQKTVLLFEVLAVLDSAVTPGPYYSKTFLMRDGKNTLPCVFYEIDRELPRLIRGRVHRCVGNYDQKKNIFQCVSVRPASVSEQKTFQAFVKIADVEMQYYINVMNET | not soluble
